Results on one molecule are retold here after publication PMC6124603 (Journal of Visualized Experiments : JoVE, 2018).

For assay [1], the target named is CD22 construct with smaller N-linked glycans (human) (UniProt P20273). Put plainly: BLI. (Biolayer interferometry detects binding as a change in optical thickness at a sensor tip.)
Assay [2] concerns the target T1, CD22 extracellular domain (CD22 ECD) produced in HEK293F cells (Homo sapiens, UniProt P20273). Put plainly: ITC. (In general: In ITC the heat of successive injections is recorded.)
The target of assay [3] is T1, CD22 extracellular domain (CD22 ECD) …. Put plainly: BLI.

The Kd is the free concentration of one partner at which half of the binding sites on the other are occupied at equilibrium, for simple one-to-one binding. Lower therefore signals a tighter complex.

T1 sequence (P20273 20-687): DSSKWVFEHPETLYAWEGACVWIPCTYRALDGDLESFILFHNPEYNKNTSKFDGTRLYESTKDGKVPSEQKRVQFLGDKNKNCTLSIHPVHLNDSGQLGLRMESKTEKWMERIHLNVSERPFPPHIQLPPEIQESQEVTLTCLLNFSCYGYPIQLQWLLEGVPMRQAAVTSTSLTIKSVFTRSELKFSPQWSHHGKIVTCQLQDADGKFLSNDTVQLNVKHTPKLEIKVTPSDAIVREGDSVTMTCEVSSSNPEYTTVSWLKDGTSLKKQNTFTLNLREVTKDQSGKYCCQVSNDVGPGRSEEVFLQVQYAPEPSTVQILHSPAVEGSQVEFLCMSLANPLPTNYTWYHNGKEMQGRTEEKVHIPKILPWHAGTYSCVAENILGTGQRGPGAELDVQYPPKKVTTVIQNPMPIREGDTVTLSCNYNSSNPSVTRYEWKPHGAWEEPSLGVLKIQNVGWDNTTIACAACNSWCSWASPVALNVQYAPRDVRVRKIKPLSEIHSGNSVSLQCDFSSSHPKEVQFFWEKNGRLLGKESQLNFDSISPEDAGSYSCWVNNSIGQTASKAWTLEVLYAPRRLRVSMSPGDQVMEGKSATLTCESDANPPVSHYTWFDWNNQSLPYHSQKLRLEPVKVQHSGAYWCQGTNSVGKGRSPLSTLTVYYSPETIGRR
Chain of CD22 construct with smaller N-linked glycans (human) (P20273 20-687): as above

B1: epratuzumab Fab (Fab, V domains shown)
VH: QVQLVQSGAEVKKPGSSVKVSCKASGYTFTSYWLHWVRQAPGQGLEWIGYINPRNDYTEYNQNFKDKATITADESTNTAYMELSSLRSEDTAFYFCARRDITTFYWGQGTTVTVSS
VL: DIQLTQSPSSLSASVGDRVTMSCKSSQSVLYSANHKNYLAWYQQKPGKAPKLLIYWASTRESGVPSRFSGSGSGTDFTLTISSLQPEDIATYYCHQYLSSWTFGGGTKLEIK
B1: the dissociation constant Kd in assay [1] came out at 24 nM; in assay [2], 188 nM; in assay [3] it was 327 nM.
